Source: paper PMC9984425, “An autoimmune pleiotropic SNP modulates IRF5 alternative promoter usage through ZBTB3-mediated chromatin looping”

B1: IRF5-promoter (dsDNA)
DNA 1: CCGGGAGCCCCGCTGGAGGCTGGCTTGGA
DNA 2: TCCAAGCCAGCCTCCAGCGGGGCTCCCGG
B2: rs4728142-A (dsDNA)
DNA 1: CCAAAAAGCTCTGAGCCAGTGTTAGTAAGAAATGG
DNA 2: CCATTTCTTACTAACACTGGCTCAGAGCTTTTTGG

Biological target: ZBTB3 recombinant protein (UniProt Q9H5J0 1-574)
Assay: EMSA; 10 ng recombinant protein; EMSA: 20 nM biotin probe, 100 mM Tris pH 7.5, 55 mM KCl, 2.5 mM MgCl2, 1 mM DTT, 500 ng poly(dI-dC), 5% glycerol, 0.05% NP-40, 20 ul, room temperature 20 min; 500x unlabeled competitor; 6% native PAGE, 0.5x TBE
Settings: protein: commercial; chain copies: 2; label: 5' biotin on strand 1; blunt

ZBTB3 recombinant protein, sequence (Q9H5J0 whole entry): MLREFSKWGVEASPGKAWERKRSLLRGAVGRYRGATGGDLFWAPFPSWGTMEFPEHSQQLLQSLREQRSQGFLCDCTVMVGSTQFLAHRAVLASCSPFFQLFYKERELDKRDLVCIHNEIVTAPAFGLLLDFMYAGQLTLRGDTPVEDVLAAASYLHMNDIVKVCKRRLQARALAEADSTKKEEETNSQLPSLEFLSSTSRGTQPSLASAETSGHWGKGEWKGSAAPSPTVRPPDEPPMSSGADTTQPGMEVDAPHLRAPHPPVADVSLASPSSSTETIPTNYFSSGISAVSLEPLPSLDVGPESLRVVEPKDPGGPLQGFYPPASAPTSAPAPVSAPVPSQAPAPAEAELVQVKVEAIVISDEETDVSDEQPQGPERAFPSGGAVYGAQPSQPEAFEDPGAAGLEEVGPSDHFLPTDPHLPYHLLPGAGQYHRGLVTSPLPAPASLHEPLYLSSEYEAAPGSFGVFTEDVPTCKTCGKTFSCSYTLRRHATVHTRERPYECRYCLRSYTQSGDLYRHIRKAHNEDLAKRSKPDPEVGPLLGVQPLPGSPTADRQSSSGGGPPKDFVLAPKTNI

Binder	binding result
B1	binds
B2	binds
